The target of data set [1] is T1, LSH3-DBD S45-S190 (Arabidopsis thaliana, UniProt O82268 45-190).
T1 sequence: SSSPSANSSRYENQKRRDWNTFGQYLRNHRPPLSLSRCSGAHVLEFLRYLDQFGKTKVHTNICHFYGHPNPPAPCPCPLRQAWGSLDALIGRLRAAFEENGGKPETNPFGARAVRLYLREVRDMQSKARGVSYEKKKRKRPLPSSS
The experiment in a line: EMSA.

Data set [2] has as its target T2, LSH1-DBD M1-L166 (Arabidopsis thaliana, UniProt Q6NNI3 1-166).
T2 sequence: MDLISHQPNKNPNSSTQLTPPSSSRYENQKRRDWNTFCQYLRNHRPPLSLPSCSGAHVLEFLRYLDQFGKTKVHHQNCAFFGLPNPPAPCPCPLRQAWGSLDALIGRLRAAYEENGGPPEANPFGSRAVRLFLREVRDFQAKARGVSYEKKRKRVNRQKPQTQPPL
The experiment in a line: EMSA. (In general: Mobility shift assays separate free from complexed probe on a gel.)

Data set [3] addresses T1, LSH3-DBD S45-S190. The experiment in a line: crystal structure.

In general, Kd refers to the equilibrium constant for the complex coming apart. The low end stands for tighter binding, the high end for weaker binding.

Where only a bound is given, the exact number is not on record here.

B1: WT ALOG motif probe (perfect motif) (dsDNA)
DNA 1: GCGTAGTTTACTGTTGACGTAG
DNA 2: CTACGTCAACAGTAAACTACG
On to B1, for which the values for the dissociation constant (Kd) in data set [1] and in data set [2] were 28 nM and less than 50 nM, respectively.

B2: LSH perfect motif 17 bp (oPR799/oPR800) (dsDNA)
DNA 1: TAGTTTACTGTTGACGT
DNA 2: ACGTCAACAGTAAACTA
Consider B2, for which the binding result in data set [3] was “binds”.
